Laboratory results taken from the RNAGym collection of RNA variant scans (doi:10.1073/pnas.2313332121).
Fewer inactive variants are shown than the library holds.

B1: TPR 5TU (parent)
chain: GGAUCUUCUCGAUCUAACAAAAAAGACAAAUCUGCCACAAAGCUUGAGAGCAUCUUCGGAUGCAGAGGCGGCAGCCUUCGGUGGCGCGAUAGCGCCAACGUUCUCAACUAUGACACGCAAAACGCGUGCUCCGUUGAAUGGAGUUUAUCAUG

Variants of: B1
Test: polymerase ribozyme fitness, log enrichment relative to wild type (log ratio); higher = more active; in vitro selection for triplet polymerase activity
Method in brief: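 Frozen incubation at −7 °C formed the core of a single, triplicate in vitro selection round applied to PCR-built, transcribed mutant libraries of each subunit of a heterodimeric triplet polymerase ribozyme. Extended constructs were gel-excised, captured with streptavidin beads and amplified by RT-PCR, and input and output libraries were Illumina-sequenced with a filter of ≥10 input reads and ≥1 read per output. Fitness is the logarithm of genotype enrichment relative to wild-type enrichment, with inverse-variance-weighted replicate averaging, and the logarithm is base 2.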
For GGAUCUUCUCGGUCUAACAAAAAAGACAAAUCUGUCACAAAGCUUGAGAGCAUCGUCGGAUGCAGAGGCGGCAGCCUUCGGUGGCGGGAUAGCGCCAACGUUCUCAACUAUGACUCGCAAAACGCGUGCUCCGUUGAAUGGAGUUUAUCAUG [A12G C35U U55G C87G A115U], the “polymerase ribozyme fitness (log ratio)” value was -4.17. With GGAUCUUCUCGGUCUAACAAAAAAGACAAAUCUGCCACAAAGCUUGAGAGCAUCUUCAGAUGCAGAGGCGGCAGCCUUCGCUGACGCGAUAGCGCCAACGUUCUCAACUAUGACACGCAAAACGCGUGCUCCCUUGAAUGGAGGUUAUCAUG [A12G G58A G81C G84A G133C U144G] the “polymerase ribozyme fitness (log ratio)” value was -1.22. With GGAUCUUCUCGGUCUAACAAAAAAGACAAAUCUGCCACAAAGCUUGAGAGCAUCUUCGGAUGCAGAGGCGGCAGCCUUCGGUGGCGCGAUAGCGCUAACGUUCUCAACUAUGACACGCAAAACGCGUGCUCCGUUGAAUGGAGUUUAUCAUG [A12G C96U] the “polymerase ribozyme fitness (log ratio)” value was -0.793. For GGAUCUUCUCGGUCUAACAAAAAAGACAAAUCUGCCACAAAGCUUGAGAGCAUAUUCGGAUGCAGAGGCGGCAGCCUUCGGUGGCGCGAUAGCGCCAAUGUUCUCAACUAUGACACGCAAAACGCGUGCUCCGUUGAAUGGAGUUUAUCAUG [A12G C54A C99U], the “polymerase ribozyme fitness (log ratio)” value was -1.32. For GGAUCUUCUCGGUCUAACAAAAAAGACAAAUCUGCCACAAAGCUUGAGAGCAUCUUCGGAUGCAGAGGCGGUAGCCUUCGGUGGCGCUAUAGCGCCAACGUUCUCAACUAUGACACGCAUAACGCGUGCUCCGUUGAAUGUAGUUUAUCAUG [A12G C72U G88U A120U G141U], the “polymerase ribozyme fitness (log ratio)” value was ≤ -4.2. With GGAUCUUCUCGGUCUAACAAAAAAAACAAAUCUGCCACAAAGCUUGAGAGCAUCUUCGGAUGCAGAGGCGGCAGCCUUCGGUGGCGGGAUAGCGCCAACGUUCUCAACUAUGACAAGCAAAACGCGUGCUCCGUUGAAUGGAGUUUAGCAUG [A12G G25A C87G C116A U148G] the “polymerase ribozyme fitness (log ratio)” value was ≤ -4.2. For GGAUCUUCUCGGUCUAACAAAAAAGACAAAUCUGCCACAAAGCUUGAAAGCAUUUUCGGAUGCAGAGGCGGCAGCCUUCGGUGGGGCGAUAGCGCCAACGUUCUCAACUAUGACACUCAAAACGCGUGCUCCGUUGAAUGGAGUUUAUCAUG [A12G G48A C54U C85G G117U], the “polymerase ribozyme fitness (log ratio)” value was -2.26. With GGAUCUUCUCGGUCUAACAAAAAAGAUAAAUCUGCCACAAAGCUUUAGAGCAUCUUAGGAUGCAGAGGCGGCAGCCUUCGGUGGGGCGAUAGCGCCAACGUUCUCAACUAUGACACGCAAACCGCGUGCUCCGUUGAAUGGAGUUUAUCAUG [A12G C27U G46U C57A C85G A122C] the “polymerase ribozyme fitness (log ratio)” value was -3.63. With GGAUCUUCUCGGUCUAACAAAAAAGACAAAUCUGCCACAAAGCUUGAGAGCAUCUUCGAAUGCAGAGGCGGCGGCCUUCGGUGGCGCGAUGGCGCCAACGUUCUCAACUAUGACACGCAAAACGCGUGCUCCGUUGAAUGGAGUUUAUCAUG [A12G G59A A73G A91G] the “polymerase ribozyme fitness (log ratio)” value was -2.71. In the case of GGAUCUUCUCGGUCUAACAAAAAAGACAAAUCUGCCACAAAGCUUGAGAGCAUCUUCGGAUGCAGAGGCGGCAGCCUUCGGUGGCGCCAUAGCGCCAACGUUCUCAACUAUGACACGCAAAACGCGUGCUCCGUUGAAUGGAGUUUAUCAUG [A12G G88C], the “polymerase ribozyme fitness (log ratio)” value is reported as -3.71. With GGAUCUUCUCGGUCUAACAAAAAAGAAAAAUCUGCCACAAAGCUUGAGAGCAUCUUCGGAUGCAGAGGCGGCAGCAUUCGGUGGCGCGAUAGCGCCAACGUUCUCAACUAUGACACGCAAAACGCGUGCUCCGUUGAAUGGAGUUUCACAUG [A12G C27A C76A A147C U148A] the “polymerase ribozyme fitness (log ratio)” value was ≤ -4.2. With GGAUCUUCUCGGUCUAACAAAAAAGACAAAUCUGCCACAAAGCUUGAGAGCAUCUUCGGAUGCAGAGGCAGCAGCCUUCGGUGGUGCGAUAGCGCCAACGUUCUGAACUAUGACAAGCAAAACGCGUGCUCCGUUGAAUGGAGUUUAUCAUG [A12G G70A C85U C105G C116A] the “polymerase ribozyme fitness (log ratio)” value was ≤ -4.2. With GGAUCUUCUCGGUCUAACAAAAAAGACAAAUCUGCCACAAAGCUUGAGAGCAUCUUCGGAUGCAGAGGAGGCAGCCUUCGGUGGCGCGAUAGCGCUAACGUUCUCAACUAUGACACGCAACACGCGGGCUCCGUUGAAUGGAGUUUUUCAUG [A12G C69A C96U A121C U127G A147U] the “polymerase ribozyme fitness (log ratio)” value was -4.02. With GGAUCUUCUCGGUCUAACAAAAAAGAAAAAGCUGGCACAAAGCUUGAGAGCAUCUUCGGAUGCAGAGGCGGCAGCCUUCGGUGGAGCGAUAGCGCCCAGGUUCUCAACUAUGACACGCAAAACGCGUGCUCCGUUGAAUGGAGUUUAUAAUG [A12G C27A U31G C35G C85A A97C C99G C149A] the “polymerase ribozyme fitness (log ratio)” value was ≤ -4.2. For GGAUCUUCUCGGUCUAACAAAAAAGACAAAUCUGCCACAAAGCUUGAGAGCAUCUUCGGAUGCAGAGGCGGCAGCCUUCGGUGGCGCGAUACCGCCAACGUUCUCAGCUAUGACACGCAAAACGCGUGCUCCUUUGAAUGGAGUUUAUCAUG [A12G G92C A107G G133U], the “polymerase ribozyme fitness (log ratio)” value was ≤ -4.2. With GGAUCUUCUCGGUCUAACAAAAAAGACAAAUCUGCCACAAAGCUUGAGAGCAUCUUCGGAUGUAGAGGCGGCAGCCUUCGGUCGCGCGAUAGCGUCAACGUUCUCAACAAUGACACGCAAAACGCGUGCUCCGUUGAAUGGAGUUUAUCAUG [A12G C63U G83C C95U U109A] the “polymerase ribozyme fitness (log ratio)” value was -2.16. With GGAUCUUCUCGGUCUAACAAAAAAGACAAAUCUGCCACAAAGCUUGAGAGCAUCUUCGGAUGCAGAGGCCGCAGCCUUCGGUGGCGCGAUAGCGCCAACGUUCUCAACUAUGCCACGCAAAACGCGUGCUCCGUUGAAUGGAGCUUCUCAUG [A12G G70C A113C U144C A147C] the “polymerase ribozyme fitness (log ratio)” value was ≤ -4.2. For GGAUCUUCUCGGUCUAACAAAAAAGACAAAUCUGCCACAAAGCUUGAGAGCAUCUUCGGAUGCAGAGGCGGCAGCCUUCGGUGGCGAGAUAGCGCCAACGUUCUCAACUAUGACACGCAAAACGCGUGCUCCGUUGAAUGGAGUUUAUCAUG [A12G C87A], the “polymerase ribozyme fitness (log ratio)” value was ≤ -4.2. For GGAUCUUCUCGGUCUAACAAAAAAGACAAAUCUGCAACAAAGCUUGAGAGCAUCUUCGGAUGCAGAGGUGGCAGCCUUCGGUGGGGCGCUAGCGCCAACGUUCUCAACUAUGUCACGCAAAACGCGUGCUCCGUUGAAUGGAGUUUAUCAUG [A12G C36A C69U C85G A89C A113U], the “polymerase ribozyme fitness (log ratio)” value was ≤ -4.2.
